Drawing on the supplement of paper PMC12042874, this text covers amyloid nucleation score for 141 substances.

± gives the uncertainty stated by the source.

A short description of the data set: amyloid nucleation score (Sup35N fusion, yeast selection) (log enrichment); library NNK1; higher = more nucleation; inactive = no reads after selection. Summed up:
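The nucleation score is the DiMSum log enrichment of output over input reads, centred on the mode score of non-aggregating sequences. Only sequences with 100 or more input reads were scored, using Illumina sequencing of input and output plasmid inserts. Psi-negative yeast expressing Sup35N fused to peptides of 20 random codons were induced 24 hours with 100 μM copper sulfate and grown 7 days at 30°C on medium lacking adenine and uracil.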
On to RCSQVGEFHFGPTDARLMGK, for which the amyloid nucleation score was 0.245 ± 0.39.
On to CTWYKFDIGWAEGLGYRDYP, for which the amyloid nucleation score worked out at 0.282 ± 1.2.
The figure for VLYELSKMGYRVLLYTHPDR is 0.125 ± 0.46; for VFVSKNWGTCRHGRDSCC it is 0.507 ± 0.26; for LFRYTVRQGWFKRETHWVPM it is 0.296 ± 0.53.
For TLTYPMCGSIG, the amyloid nucleation score was 1.09 ± 0.47.
GHLNQCGLNL: the amyloid nucleation score was -0.136 ± 0.38.
LSSTDFLGSDVDCFGNCNFL showed an amyloid nucleation score of 3.48 ± 0.13.
Turning to NFRSFYKQF, the amyloid nucleation score was -0.451 ± 1.4.
Next, GLILNNLSWAHWPPGGSMWL: 2.72 ± 0.17; GHNLRLWCCNEADHFFRAQR: -1.16 ± 1.9.
The substance LRTWDSIFYDLMGACGRPWV yielded an amyloid nucleation score of -0.521 ± 0.54.
As for FVLADYVGAARVRGTTLFAE, the amyloid nucleation score amounted to 0.406 ± 0.53.
On to VVTRYL, for which the amyloid nucleation score stood at 0.403 ± 0.36.
The substance DIIIWSSSRHYNVNCKSNSA yielded an amyloid nucleation score of 0.55 ± 0.18.
GLDLMSVRWGKTMAPSSLWW: the amyloid nucleation score was 4.63 ± 0.12.
The substance LSTKRYDLHSTPRRPISPSR registered an amyloid nucleation score of 1.08 ± 0.41.
The substance NNNAMQVDVILMRFWVKVAV showed an amyloid nucleation score of 0.492 ± 0.89.
In the case of FNQINQGCRGCKQRTLVPDI, the amyloid nucleation score is 0.5 ± 0.67.
Next, SCVYCMSRSNWILVWMALLQ: 0.614 ± 0.45; VNMSKHYRRGWGDDVATGVR: 0.693 ± 0.49.
Turning to EQPGVHYQNQFYKHVLYNAS, the amyloid nucleation score was 0.587 ± 0.38.
RCILRSTSFRAVAWM came in with an amyloid nucleation score of 0.771 ± 0.67.
Next, YYGNTRWLDYMPLL: “inactive”; MYRQTEGLVRFKGRGPFKVE: 0.355 ± 0.4; LALMEEPLVLDNGSLDTKLS: 0.579 ± 1.1.
For RINLYIMFNLLDSGVDLNS, the amyloid nucleation score worked out at 6.45 ± 0.071.
With MNRYFFYLIRVFLRGYH, the amyloid nucleation score is -0.094 ± 0.64.
As to DLLFAVYYELEHGFERVAGR, the amyloid nucleation score was found to be 4.78 ± 0.081.
For GRHSWINGYKVEV, the amyloid nucleation score came out at 6.938 ± 0.055.
With NLLGDSLWEPLNLVDGSTLW, the amyloid nucleation score came to 0.235 ± 0.3.
Substance IRTMSGNDKPI showed an amyloid nucleation score of -0.36 ± 0.33.
The figure for TSRVH is 0.228 ± 1.2; for RLISTGADCEVRISHIRSRN it is 0.594 ± 0.48.
For GAVDSYLQRLFGLFRWDTLK, the amyloid nucleation score is -0.375 ± 0.64.
Turning to DTFCQL, the amyloid nucleation score was -0.147 ± 1.1.
Regarding LGWSGMVGFG, the amyloid nucleation score was 0.08 ± 0.81.
For SDIMDFEY, the amyloid nucleation score result is “inactive”.
Substance GHIHFWASRDLPTKCHILGL returned an amyloid nucleation score of -0.181 ± 0.67.
Consider EPYLISEFRRT, for which the amyloid nucleation score was -0.364 ± 0.47.
Next, TRLKFGGSKHESSQT: 1.18 ± 0.43; EFLDELSGVVYSLLGYEVTR: 2.63 ± 0.13; NTNLVWR: 0.267 ± 0.36.
RASRMHGQGPLKNVWEGLYQ had an amyloid nucleation score of 0.119 ± 0.98.
LWLAFIIES gave an amyloid nucleation score of 0.338 ± 0.25.
RRCRVEFLYVHSDYM: the amyloid nucleation score was 3.79 ± 0.097.
The substance TKIGKYKFAYCNAIAGARVE gave an amyloid nucleation score of 0.766 ± 0.87.
The entry for GLCVMSYTVDSLLCKGIFR is “inactive”; for INGFYCCRV it is 0.787 ± 0.21.
LYLHSWAYVHKNTLNYL showed an amyloid nucleation score of -0.14 ± 0.5.
RVVVQNI showed an amyloid nucleation score of 1.18 ± 0.97.
The substance GGFFYMWRYRLCRLGKFGAP showed an amyloid nucleation score of -0.76 ± 0.6.
The substance YNYVG showed an amyloid nucleation score of -1.29 ± 2.7.
Turning to VFQLIVTTFLSCVGFHKVMW, the amyloid nucleation score is -0.658 ± 0.6.
Consider SSRLLCYRSVGAFISVGNEV, for which the amyloid nucleation score was found to be 0.675 ± 0.19.
Turning to VDYFFMGAGFEL, the amyloid nucleation score was 4.53 ± 0.077.
The substance LRVYHSYFFSWSSTSLLPAG yielded an amyloid nucleation score of 0.219 ± 0.76.
Turning to SITSSYKYGKVSWSMSLGVG, the amyloid nucleation score was -1.07 ± 0.46.
IVPAEAVLRRLQRFLRWLVV yielded an amyloid nucleation score of -0.245 ± 1.1.
For DACMTGSTLTGYLSTDVGLI, the amyloid nucleation score entry was “inactive”.
With PLLLNEVKRL, the amyloid nucleation score stood at 0.614 ± 0.29.
Next, ISVLVHMMRKAFVQG: 0.768 ± 0.39; VVKLRHYAEKICGSETELG: 0.003 ± 0.51.
The figure for IYRLTCETEVRCGTFNDIVD is 0.105 ± 0.21; for PYVEIAWS it is -1.19 ± 0.85.
Consider AGFSSDFASVPHPLGYGWLT, for which the amyloid nucleation score is -0.662 ± 1.2.
FCWVGQNEWCRHLFELCLER yielded an amyloid nucleation score of 0.517 ± 0.63.
The figure for HIVQRCFHVIYCSRVFYVLY is 0.386 ± 0.53; for RESVINIR it is 1.28 ± 0.46.
The substance HYIVDLEQLQWDVWGIFSDS gave an amyloid nucleation score of 0.058 ± 0.73.
On to HYMRWIGLRTDTKGPRSGSG, for which the amyloid nucleation score is -0.578 ± 0.86.
The figure for VGDCSSVFCVTSFDWVSFYV is 2.89 ± 0.098.
The figure for KITHLFFKSSYVIVKLLYVI is 0.082 ± 0.51.
The figure for PLEKVFVGPSADASNEEHRL is -0.883 ± 1.1; for FRTATWNKIGAQDRVKSISV it is -1.06 ± 2.7.
As to YPSVADRHAILHR, the amyloid nucleation score came out at 0.219 ± 0.74.
FYSALLGQTRYSRSSRSSTE: the amyloid nucleation score entry was “inactive”.
RMSCAHDDHPIYWSCT had an amyloid nucleation score of -0.622 ± 0.98.
Substance GCFIVR returned an amyloid nucleation score of -0.768 ± 0.98.
For FRQFCCV, the amyloid nucleation score result was “inactive”.
RSFFPSNRDTTRPQATFVAR came in with an amyloid nucleation score of 1.31 ± 0.68.
In turn, SSMGPFLSV had an amyloid nucleation score of 0.014 ± 0.48.
Next, LGFVRLGGSCHITIDSGACV: -0.386 ± 1; FGIRVVSR: 0.842 ± 0.73.
The figure for DLNNGDAKSDRFYGSFLHSW is -0.612 ± 0.32.
With MGIHIFSGRSCTIFLLPSLY, the amyloid nucleation score was -0.582 ± 1.2.
Substance QKNCT yielded an amyloid nucleation score of 1.01 ± 0.34.
Regarding FKASIYDISQNT, the amyloid nucleation score is -0.459 ± 0.3.
WNASMQSTGWFDILIYMCPV: the amyloid nucleation score is 3.19 ± 0.11.
Take YVHLYDDCTIGSTRAEGRGY: the amyloid nucleation score worked out at 0.777 ± 1.2.
AHYPFI had an amyloid nucleation score of 0.065 ± 1.5.
Next, EKMHQSYLSRYYIDR: 1.12 ± 0.54; LFCKSPCYFVMLADKMHIWG: 5.07 ± 0.11; YPNYFSVRFSNWLASTKFQI: “inactive”.
Substance GEIITWLSGIPLDTVCILRM came in with an amyloid nucleation score of -0.229 ± 0.25.
With NGRIQKLASNTCGLWEDLDT, the amyloid nucleation score is 0.501 ± 0.54.
RLNKWWRTKDSYTGL: the amyloid nucleation score amounted to 0.258 ± 0.41.
In turn, SGMFYILPTSPGYAHEVPRR gave an amyloid nucleation score of 0.393 ± 0.35.
TYWFMSRC returned an amyloid nucleation score of 0.254 ± 0.88.
The figure for YCMRFVQ is 1.52 ± 0.49.
Substance NGCQSIMR had an amyloid nucleation score of 0.165 ± 0.62.
The substance STMVCHDFLAMMGSCMGLCL displayed an amyloid nucleation score of -0.406 ± 0.96.
On to VESTCTNMRCYLGWFIPPF, for which the amyloid nucleation score worked out at 0.387 ± 0.2.
The substance FYRNTGFMW displayed an amyloid nucleation score of -1.42 ± 2.7.
The figure for FLTTEYDDWVSSAFINCCGD is -0.475 ± 0.41.
As for VLRCVISLQV, the amyloid nucleation score entry was “inactive”.
With HHLDPGQTHEIVSCSTWFTF, the amyloid nucleation score is -0.397 ± 0.29.
TEAFRSRAFFGWWRSMCRRW had an amyloid nucleation score of 0.112 ± 0.87.
The figure for HCMGRACPHS is 5.11 ± 0.11.
For the substance EGNLVLSMLMY, the amyloid nucleation score is -0.198 ± 0.47.
GFDKMMCWYYGLTVIVMDGS had an amyloid nucleation score of -0.076 ± 0.25.
The substance YLCKVRACTRKSQSLLCGAS returned an amyloid nucleation score of 0.678 ± 0.65.
CLVYVQLWVARMSYPCVRFG showed an amyloid nucleation score of 0.214 ± 0.32.
On to MYQVHTVSTVKIEMAYHAQG, for which the amyloid nucleation score came out at 1.67 ± 0.26.
QIYKVDGYFQVGILLLSPVP: the amyloid nucleation score was -1.29 ± 0.95.
The figure for SFQFVSSCDIRRFAISRATG is -0.152 ± 0.47; for KWIRRRTDIFELSRLVWMGW it is -0.694 ± 0.58.
The figure for VITNVRL is -0.089 ± 0.35.
On to FSSFESCCRRYSSM, for which the amyloid nucleation score came out at 0.576 ± 0.93.
The substance WVWFCNEF displayed an amyloid nucleation score of -0.307 ± 0.57.
In the case of YSNRWNYWVYVFGQVF, the amyloid nucleation score was -0.437 ± 0.42.
For RMGNQYPRSVKWT, the amyloid nucleation score was -0.029 ± 0.33.
Substance TCGSYV yielded an amyloid nucleation score of 0.215 ± 0.42.
ESHVWELDLGSWSRFGWRSR had an amyloid nucleation score of 2.62 ± 0.11.
Next, IWKKLITNWMAYLTLNNFAL: “inactive”.
YMAFYPCWVHHKMIEKLCRC displayed an amyloid nucleation score of -0.076 ± 0.71.
Take SALLVMPRVAVSSTMVGKAT: the amyloid nucleation score amounted to 0.938 ± 0.45.
QHKTRQYHVSPVRVTIL: the amyloid nucleation score came out at 0.135 ± 0.65.
On to HLLWETSMQRLMSHIFTSSR, for which the amyloid nucleation score came to 0.022 ± 0.43.
The entry for NCGNMAATSFVNEIYL is “inactive”; for TLVGKVLADDSRGFINCR it is 0.924 ± 0.97; for YSSERTLLALVGT it is -0.21 ± 0.51.
The figure for REPACYSKVTLADKYRLVSE is 1.26 ± 0.74; for LGECFTGTDRLLEGLVSCES it is 0.776 ± 0.88.
TVANT: the amyloid nucleation score amounted to 0.888 ± 1.1.
The substance NSREYDRATGNGGTEGKSVT came in with an amyloid nucleation score of -0.45 ± 1.1.
With LCFGYKLIAKECVCAGRTES, the amyloid nucleation score result is “inactive”.
In turn, GSRCRRLWDM gave an amyloid nucleation score of -0.02 ± 0.55.
FDDFHESARTGFNGKERSQM gave an amyloid nucleation score of 1.01 ± 0.19.
For FFLNQMIILSLACIGEPGQG, the amyloid nucleation score amounted to 5.08 ± 0.068.
Substance RCDNLF had an amyloid nucleation score of 0.037 ± 0.39.
